# Assay results: publication PMC3324284
# Several values for one entry are separate records, joined by “and”; a condition that tells them apart may be missing. Equal entries are not always repeated. Where two headings read alike, the source gives them in different places.
# What was measured:
# [1] = biological target: Mga4-His6 (Group A Streptococcus (Streptococcus pyogenes), M4 serotype strain GA40634); experiment: AUC
# [2] = biological target: Mga4-His6 (Group A Streptococcus (Streptococcus pyogenes), M4 serotype strain GA40634); experiment: AUC; remark: listed apart in the source
# [3] = biological target: Mga4-His6 (Group A Streptococcus (Streptococcus pyogenes), M4 serotype strain GA40634); experiment: SEC
substance,measurement,setting,value
Mga4-His6 (natural protein),Kd,[1],6.13 µM
same,Kd,[2],9.41 µM
same,stoichiometry N,[3],2 and 4 and 6
